Reference: the supplement of paper PMC7125110
± gives the standard error. Fewer inactive variants are shown than the library holds.

B1: glmS ribozyme (parent)
chain: AUAAAAGCGCCAGAACUACAGAAAUGUAGUUGACGAGGAGGAGGUUUAUCGAAUUUUCGGCGGAUGCCUCCAAA

Key:
Settings in all cases: with glucosamine-6-phosphate
glucosamine-6-phosphate [1] = variants of: B1; experiment: self-cleavage kobs at 40 uM GlcN6P; higher = faster cleavage; RNA array
Summary of the method: (§1)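 The measurements used barcoded ribozyme variants on sequenced MiSeq chips, transcribed in situ by E. coli RNA polymerase and tracked at 37 °C with a hybridised Cy3 probe. Glucosamine-6-phosphate, 40 μM to 10 mM in HEPES/KCl/Mg(OAc)2 buffer, was flowed in while tiles were imaged over ~14 h. Baseline-normalised signals, also normalised to non-cleaving reference variants, gave per-tile medians that were fit to one- or two-exponential decays for kobs. kcat and KM resulted from weighted Michaelis–Menten fits across concentrations.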

glucosamine-6-phosphate [2] = variants of: B1; experiment: self-cleavage kobs at 10000 uM GlcN6P; higher = faster cleavage; RNA array
Summary of the method: as §1

glucosamine-6-phosphate [3] = variants of: B1; experiment: self-cleavage kobs at 160 uM GlcN6P; higher = faster cleavage; RNA array
Summary of the method: as §1

glucosamine-6-phosphate [4] = variants of: B1; experiment: self-cleavage kobs at 640 uM GlcN6P; higher = faster cleavage; RNA array
Summary of the method: as §1

glucosamine-6-phosphate [5] = variants of: B1; experiment: self-cleavage kobs at 2500 uM GlcN6P; higher = faster cleavage; RNA array
Summary of the method: as §1

| Variant | self-cleavage kobs at 40 uM GlcN6P (glucosamine-6-phosphate [1]) [s⁻¹] | self-cleavage kobs at 10000 uM GlcN6P (glucosamine-6-phosphate [2]) [s⁻¹] | self-cleavage kobs at 160 uM GlcN6P (glucosamine-6-phosphate [3]) [s⁻¹] | self-cleavage kobs at 640 uM GlcN6P (glucosamine-6-phosphate [4]) [s⁻¹] | self-cleavage kobs at 2500 uM GlcN6P (glucosamine-6-phosphate [5]) [s⁻¹] |
| --- | --- | --- | --- | --- | --- |
| G37C G41U G63C | < 1e-05 |  |  |  |  |
| G35U U47A C50G C70U | 0.000411 ± 0.00012 | 0.000429 ± 0.00017 |  |  |  |
| G35U G59C | < 1e-05 | < 1e-05 | < 1e-05 | < 1e-05 | < 1e-05 |
| G35U A48G | < 1e-05 | < 1e-05 | < 1e-05 | < 1e-05 |  |
| A36C A48G | < 1e-05 | < 1e-05 |  |  |  |
| G35A U56G | < 1e-05 | < 1e-05 |  | < 1e-05 |  |
| G37A G40C A48U G63A | < 1e-05 |  |  |  |  |
| G35C C61U | < 1e-05 | < 1e-05 | < 1e-05 | < 1e-05 | < 1e-05 |
| G35C U65C | < 1e-05 | < 1e-05 | < 1e-05 | < 1e-05 | < 1e-05 |
| G35C U57A | < 1e-05 |  | < 1e-05 | < 1e-05 | < 1e-05 |
| A36C U69G | 4.49e-05 ± 1.6e-05 | 3.45e-05 ± 1e-05 | 0.000114 ± 3.7e-05 | 0.000391 ± 9.8e-05 | 0.0001 ± 2e-05 |
| G35C A36G G37A A39G U65A | < 1e-05 | < 1e-05 |  |  |  |
| A36C G43U | < 1e-05 | < 1e-05 |  | < 1e-05 | < 1e-05 |
| G37A G51A U55G | < 1e-05 | < 1e-05 |  |  |  |
| A36G A42U | < 1e-05 | < 1e-05 | < 1e-05 | < 1e-05 |  |
| G35C A48G A52C C70G | < 1e-05 |  |  |  |  |
| A36U C70A | 3.96e-05 ± 1e-05 | 2.74e-05 ± 7.6e-06 | 4.33e-05 ± 1.3e-05 | 0.000143 ± 3.1e-05 |  |
| G37C G41U U46C | < 1e-05 | < 1e-05 |  |  |  |
| A36U C61A C67U | 5.22e-05 ± 2.3e-05 |  |  |  |  |
| G35U C61A | < 1e-05 | < 1e-05 |  | < 1e-05 | < 1e-05 |
| A36G U45G G51U U54C U56A C68A | < 1e-05 |  |  |  |  |
| A36U U45C C50U | < 1e-05 |  |  |  |  |
| G37C A48U U57G | < 1e-05 |  |  | < 1e-05 | < 1e-05 |
| G35C U46C | < 1e-05 |  |  | < 1e-05 | < 1e-05 |

| Variant | self-cleavage kobs at 40 uM GlcN6P (glucosamine-6-phosphate [1]) [s⁻¹] | self-cleavage kobs at 10000 uM GlcN6P (glucosamine-6-phosphate [2]) [s⁻¹] | self-cleavage kobs at 160 uM GlcN6P (glucosamine-6-phosphate [3]) [s⁻¹] | self-cleavage kobs at 640 uM GlcN6P (glucosamine-6-phosphate [4]) [s⁻¹] | self-cleavage kobs at 2500 uM GlcN6P (glucosamine-6-phosphate [5]) [s⁻¹] |
| --- | --- | --- | --- | --- | --- |
| A36U U47G C70G | 6.62e-05 ± 2.4e-05 | 4.91e-05 ± 1.4e-05 |  |  |  |
| G37A U56A | 1.92e-05 ± 6.8e-06 | 0.000962 ± 0.00011 | 4.84e-05 ± 1.8e-05 |  |  |
| G37C G38A | < 1e-05 | < 1e-05 | < 1e-05 |  |  |
| G35C U45C C67G C68A | 0.00152 ± 0.00042 | 0.000566 ± 0.00018 |  |  |  |
| A36G G63A C67G | < 1e-05 | < 1e-05 |  |  |  |
| A36U U49C | < 1e-05 | < 1e-05 | < 1e-05 | < 1e-05 |  |
| G35U A52C | < 1e-05 | < 1e-05 |  |  |  |
| A36G A64U U65G | < 1e-05 | < 1e-05 |  | < 1e-05 | < 1e-05 |
| A36U U49G U65A | < 1e-05 |  |  |  |  |
| G35U G37A | < 1e-05 |  |  | < 1e-05 | < 1e-05 |
| A36U A48U | < 1e-05 | < 1e-05 | < 1e-05 |  | < 1e-05 |
| G35U C67G C71A | < 1e-05 |  |  |  |  |
| G35A U45C C71U | < 1e-05 | < 1e-05 |  |  | < 1e-05 |
| A36C G37A C58G | < 1e-05 | < 1e-05 |  |  | < 1e-05 |
| G37C A42U C70A | < 1e-05 |  |  |  |  |
| G35U U46A C58U | < 1e-05 | < 1e-05 | < 1e-05 |  | < 1e-05 |
| A36C G41U G51A G60U | < 1e-05 |  |  | < 1e-05 | < 1e-05 |
| G35C U56G C58A U69A | < 1e-05 |  | < 1e-05 |  | < 1e-05 |
| A36G U56A | < 1e-05 |  |  | < 1e-05 |  |
| G37A U54A | 7.84e-05 ± 1.8e-05 | 0.00478 ± 0.00082 |  |  |  |
| G35C A48G C50A | < 1e-05 |  |  |  |  |
| G37A A52U G59A G60A | < 1e-05 |  |  |  |  |
| G35U G51A U54G | < 1e-05 | < 1e-05 |  |  |  |
| G35C G66C | < 1e-05 | < 1e-05 | < 1e-05 | < 1e-05 | < 1e-05 |

| Variant | self-cleavage kobs at 40 uM GlcN6P (glucosamine-6-phosphate [1]) [s⁻¹] | self-cleavage kobs at 10000 uM GlcN6P (glucosamine-6-phosphate [2]) [s⁻¹] | self-cleavage kobs at 160 uM GlcN6P (glucosamine-6-phosphate [3]) [s⁻¹] | self-cleavage kobs at 640 uM GlcN6P (glucosamine-6-phosphate [4]) [s⁻¹] | self-cleavage kobs at 2500 uM GlcN6P (glucosamine-6-phosphate [5]) [s⁻¹] |
| --- | --- | --- | --- | --- | --- |
| G35C G66A | < 1e-05 | < 1e-05 |  |  | < 1e-05 |
| G35C C50A | < 1e-05 | < 1e-05 | < 1e-05 | < 1e-05 | < 1e-05 |
| G35U G62A | < 1e-05 | < 1e-05 | < 1e-05 | < 1e-05 | < 1e-05 |
| G35C G40U A64U | < 1e-05 |  | < 1e-05 |  | < 1e-05 |
| G35U C50U C67G | 0.000272 ± 0.0001 |  |  |  |  |
| G37A C50A G59A G66A | < 1e-05 |  |  |  |  |
| G35A U57G | < 1e-05 |  |  |  |  |
| G37A U45C C58U C61G | < 1e-05 |  |  |  |  |
| G35A U45A C67U | < 1e-05 | < 1e-05 |  |  |  |
| G35C C50U G51C | < 1e-05 | < 1e-05 | < 1e-05 | < 1e-05 | < 1e-05 |
| G35U G43U U54A | < 1e-05 | < 1e-05 |  |  |  |
| G37C G38C G40U U55A | < 1e-05 |  |  |  | < 1e-05 |
| G35U U54C U55A G59C | < 1e-05 | < 1e-05 |  |  |  |
| G35U G38A | < 1e-05 | < 1e-05 | < 1e-05 |  |  |
| A36G G41C G43C A48G | < 1e-05 | < 1e-05 |  |  | < 1e-05 |
| A36G U49G | < 1e-05 |  |  | < 1e-05 |  |
| G35C A42U | < 1e-05 |  | < 1e-05 | < 1e-05 | < 1e-05 |
| G35A U45A C61A G62C | < 1e-05 |  |  |  |  |
| G35C G60A | < 1e-05 | < 1e-05 |  | < 1e-05 |  |
| A36C U65C | < 1e-05 | < 1e-05 | < 1e-05 |  | < 1e-05 |
| A36C U65A | < 1e-05 |  |  | < 1e-05 | < 1e-05 |
| G37C G41U U54G | < 1e-05 |  |  |  |  |
| A36G A39U G43C C61G | < 1e-05 |  |  |  |  |
| G35A U47A G51U | < 1e-05 |  |  |  |  |

| Variant | self-cleavage kobs at 40 uM GlcN6P (glucosamine-6-phosphate [1]) [s⁻¹] | self-cleavage kobs at 10000 uM GlcN6P (glucosamine-6-phosphate [2]) [s⁻¹] | self-cleavage kobs at 160 uM GlcN6P (glucosamine-6-phosphate [3]) [s⁻¹] | self-cleavage kobs at 640 uM GlcN6P (glucosamine-6-phosphate [4]) [s⁻¹] | self-cleavage kobs at 2500 uM GlcN6P (glucosamine-6-phosphate [5]) [s⁻¹] |
| --- | --- | --- | --- | --- | --- |
| G37C C68A | < 1e-05 | < 1e-05 |  |  |  |
| A36U A39U C50U C61G U65A | < 1e-05 | < 1e-05 |  |  |  |
| G37C G62C | < 1e-05 | < 1e-05 |  | < 1e-05 |  |
| A36C U49C U65A | < 1e-05 | < 1e-05 |  |  |  |
| G35A G41A | < 1e-05 | < 1e-05 | < 1e-05 | < 1e-05 | < 1e-05 |
| G35A G51A | < 1e-05 | < 1e-05 |  |  |  |
| G37C C50U G66U | < 1e-05 | < 1e-05 |  |  |  |
| G37A G51C | < 1e-05 | < 1e-05 | < 1e-05 | < 1e-05 | < 1e-05 |
| A36C G41U U45G C67G | < 1e-05 | < 1e-05 |  |  |  |
| G35A U56C C58U | < 1e-05 | < 1e-05 |  |  |  |
| G35A U46A | < 1e-05 | < 1e-05 | < 1e-05 | < 1e-05 | < 1e-05 |
| G35A G44U U65A C70G | < 1e-05 |  | < 1e-05 |  | < 1e-05 |
| A36C G44A | < 1e-05 | < 1e-05 | < 1e-05 | < 1e-05 | < 1e-05 |
| A36C A42U | < 1e-05 |  |  |  |  |
| G35A U45C | < 1e-05 | < 1e-05 |  | < 1e-05 | < 1e-05 |
| G37C G44U | < 1e-05 |  |  | < 1e-05 |  |
| G37C G44A | < 1e-05 | < 1e-05 | < 1e-05 | < 1e-05 |  |
| G35C C67A | < 1e-05 | < 1e-05 | < 1e-05 | < 1e-05 |  |
| G35U U54A | < 1e-05 |  | < 1e-05 | < 1e-05 | < 1e-05 |
| G35U C61U U65G | < 1e-05 |  |  |  |  |
| G37A C50U | < 1e-05 |  | < 1e-05 |  | < 1e-05 |
| A36C G41U G44C U55G U56C C61G | < 1e-05 |  |  |  |  |
| A36G C58U C70U | < 1e-05 |  | < 1e-05 | < 1e-05 |  |
| G37C A48U | < 1e-05 | < 1e-05 |  |  |  |
